Measured values as given in US20050137135A1 (priority 2002, published 2005).
Ends that are not written are not given here.

T1: rat pancreatic islet (wild type) GIP-receptor stably expressed on CHO-K1 cells (rat) (UniProt P43219)
T1 sequence (looked up): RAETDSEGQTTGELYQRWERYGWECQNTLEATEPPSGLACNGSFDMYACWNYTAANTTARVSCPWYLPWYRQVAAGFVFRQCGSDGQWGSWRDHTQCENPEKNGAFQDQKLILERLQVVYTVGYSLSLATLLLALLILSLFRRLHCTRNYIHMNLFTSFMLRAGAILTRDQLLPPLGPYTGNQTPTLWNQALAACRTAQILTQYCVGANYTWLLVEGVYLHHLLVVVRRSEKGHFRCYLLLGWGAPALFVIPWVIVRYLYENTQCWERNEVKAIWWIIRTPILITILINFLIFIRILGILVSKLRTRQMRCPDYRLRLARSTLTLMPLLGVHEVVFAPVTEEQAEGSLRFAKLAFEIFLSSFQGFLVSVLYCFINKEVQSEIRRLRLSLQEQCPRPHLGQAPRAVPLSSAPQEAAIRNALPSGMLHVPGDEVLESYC

T2: rat pancreatic islet (wild type) GIP-receptor stably expressed on CHO-K1 cells (rat, UniProt P43219 19-455)
T2 sequence (looked up): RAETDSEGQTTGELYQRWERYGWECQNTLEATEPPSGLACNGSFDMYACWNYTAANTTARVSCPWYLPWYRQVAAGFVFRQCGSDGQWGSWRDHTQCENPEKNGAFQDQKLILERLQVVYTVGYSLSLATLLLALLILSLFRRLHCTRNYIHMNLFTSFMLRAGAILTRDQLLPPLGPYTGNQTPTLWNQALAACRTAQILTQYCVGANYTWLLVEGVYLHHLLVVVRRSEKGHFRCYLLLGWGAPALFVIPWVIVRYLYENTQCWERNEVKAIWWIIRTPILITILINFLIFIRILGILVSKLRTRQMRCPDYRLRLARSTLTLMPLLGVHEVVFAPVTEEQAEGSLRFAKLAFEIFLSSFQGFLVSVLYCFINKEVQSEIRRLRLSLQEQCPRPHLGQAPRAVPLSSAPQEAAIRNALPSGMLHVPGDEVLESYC


Legend:
[1] = biological target: T3, DPIV (dipeptidyl peptidase IV) (Sus scrofa, UniProt P22411); assay: Determination of DPIV resistance by MALDI-TOF mass spectrometry; type: in vitro ADME; conditions: purified kidney DPIV, 0.04 M Tris buffer pH 7.6, up to 24 h, MALDI-TOF MS; read-out: half life after incubation with DP IV
T3 construct: The hydrolysis of peptide analogues by purified kidney DPIV was studied as described previously [12]; from tissue; host or cells: kidney
T3 sequence (P22411 whole entry): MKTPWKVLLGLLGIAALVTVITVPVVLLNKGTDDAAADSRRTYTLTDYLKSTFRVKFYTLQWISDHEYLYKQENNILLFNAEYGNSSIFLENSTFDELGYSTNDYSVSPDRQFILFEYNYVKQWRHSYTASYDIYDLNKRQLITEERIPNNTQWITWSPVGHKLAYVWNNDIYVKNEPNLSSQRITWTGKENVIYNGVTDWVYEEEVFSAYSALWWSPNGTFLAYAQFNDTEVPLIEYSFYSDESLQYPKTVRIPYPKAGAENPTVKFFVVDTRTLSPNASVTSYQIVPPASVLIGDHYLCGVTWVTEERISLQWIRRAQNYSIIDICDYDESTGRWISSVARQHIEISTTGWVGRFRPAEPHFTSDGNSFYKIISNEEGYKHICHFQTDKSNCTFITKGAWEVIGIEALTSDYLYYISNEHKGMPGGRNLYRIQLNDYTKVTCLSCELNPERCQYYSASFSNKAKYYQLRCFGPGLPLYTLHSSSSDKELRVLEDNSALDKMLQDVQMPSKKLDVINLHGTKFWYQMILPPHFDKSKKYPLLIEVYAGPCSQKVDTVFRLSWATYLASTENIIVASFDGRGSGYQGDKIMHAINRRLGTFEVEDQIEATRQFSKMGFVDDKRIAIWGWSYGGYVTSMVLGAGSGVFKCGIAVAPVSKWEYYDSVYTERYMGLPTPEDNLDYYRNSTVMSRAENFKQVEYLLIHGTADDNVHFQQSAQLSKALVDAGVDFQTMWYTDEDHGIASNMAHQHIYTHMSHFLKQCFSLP
Description: The hydrolysis of peptide analogues by purified kidney DPIV was studied as described previously. […] Samples were removed from the incubation mixture and prepared for MALDI-TOF mass spectrometry, as described in Pauly, […]., Pederson, R. A., and Demuth, H. U.

[2] = biological target: T1, rat pancreatic islet (wild type) GIP-receptor stably expressed on CHO-K1 cells (rat); assay: displacement of 125I-GIP from intact CHO-K1 cells expressing rat GIP receptor, 10 µM peptide
INS-1 (832/13) cells = assay: Cell survival during glucose deprivation (CYQUANT); type: cell-based; conditions: inhibitor added 15 min prior to final 24 h culture, 100 nM GIP
Description: Cell passages 45-60 were used.
Cells were seeded into 96-well plates (5×10^4 cells/well) prior to experimentation. […] Cells were quantified using the CYQUANT™ assay system (Molecular Probes, Eugene, Oreg., USA) according to the manufacturers' protocol.
Cell survival was assessed in the presence of prolonged glucose deprivation.

[3] = biological target: T2, rat pancreatic islet (wild type) …; assay: cell-based or functional assay
[4] = biological target: T2, rat pancreatic islet (wild type) …; assay: competition with 125I-GIP on intact CHO-K1 cells expressing rat GIP receptor
Description: (§1) Cells were cultured in DMEM/F12, supplemented with 10% newborn calf serum, 50 units/ml penicillin G, and 50 μg/ml streptomycin (Culture media and antibiotics from Gibco BRL, Life Technologies). Cells were grown in 75 cm² flasks until 80-90% confluent, when they were split and seeded onto 24 well plates at a density of 50,000 cells/well. Experiments were carried out 48 h later.
(§2) Binding studies using ¹²⁵I-labeled spGIP₁₋₄₂, purified by high performance liquid chromatography (HPLC), were performed essentially as described previously-[21]. wtGIP-R1 Cells (1-5×10⁵/well) were washed twice at 4° C. in binding buffer (BB), consisting of DMEM/F12 (GIBCO), 15 mM HEPES, 0.1% bovine serum albumin (BSA), 1% Trasylol (aprotinin; Bayer), pH 7.4. They were incubated for 12-16 h at 4° C. with ¹²⁵I-spGIP (50,000 cpm) in the presence or absence of unlabeled GIP₁₋₄₂ or analogue. Following incubation, cells were washed twice with ice cold buffer, solubilized with 0.1 M NaOH (1 ml), and transferred to culture tubes for counting of cell-associated radioactivity. Nonspecific binding was defined as that measured in the presence of 1 μM GIP₁₋₄₂ or GIP₁₋₃₀, and specific binding expressed as % of binding in the absence of competitor (% B/Bo).

[5] = biological target: T2, rat pancreatic islet (wild type) …; assay: displacement of 125I-GIP from intact CHO-K1 cells expressing rat GIP receptor, 10 µM peptide
Description: as §1, §2

[6] = biological target: T1, rat pancreatic islet (wild type) GIP-receptor stably expressed on CHO-K1 cells (rat); assay: cell-based or functional assay

Molecule | cAMP Production (Fold Basal) at 10 µM [3] [fold basal] | cAMP Production (Fold Basal) at 20 µM [3] [fold basal] | % Displacement at 10 µM [5] [%] | further results
YPEGTF-NH2 [Pro^2-GIP1-6a] |  |  |  | half-life [1]: > 7.5 min
GIP 1-15OH (from UniProt P09681 52-66) (peptide) |  |  |  | % Displacement at 10 µM [2]: -3.1%
COc1cccc(-c2cc(=O)c3ccccc3o2)c1N [PD98059] |  |  |  | effect of protein kinase inhibitor on GIP-mediated cell survival (INS-1 (832/13) cells): Neither of the Mek1/2 inhibitors PD98059 (50 and 100 μM) nor U0126 (10 μM) blocked
DKIRQQDFVNWLLAQK-NH2 (peptide, UniProt P01281 15-30, looked up, range 15-30; also called GIP15-30a) [GIP 15-30NH2] | 1.24 | 1.01 | 82.7 | IC50 [4]: 1400 nM
YAEGTFISDYSIAM-NH2 (peptide, UniProt P09681 52-65, looked up, range 1-14) [GIP 1-14NH2] | 75.4 | 88.3 | 27.9 | 
YAEGTF-NH2 (peptide, UniProt P09681 52-57, looked up) [GIP 1-6NH2] |  |  |  | cAMP Production (Fold Basal) at 10 µM [6]: 1.27 fold basal; cAMP Production (Fold Basal) at 20 µM [6]: 1.08 fold basal; % Displacement at 10 µM [2]: -3.6%
IRQQDFVNWLLAQK-NH2 (peptide, UniProt P01281 17-30, looked up, range 17-30; also called GIP17-30a) [GIP 17-30NH2] | 1.13 | 1.12 | 81.9 | IC50 [4]: 1540 nM
YAEGTFISDYSIA-OH (peptide, UniProt P09681 52-64, looked up) [GIP 1-13OH] |  |  |  | cAMP Production (Fold Basal) at 10 µM [6]: 1.03 fold basal; cAMP Production (Fold Basal) at 20 µM [6]: 1.15 fold basal; % Displacement at 10 µM [2]: -0.2%
YAEGTFISDYSIA-NH2 (peptide, UniProt P09681 52-64, looked up, range 1-13) [GIP 1-13NH2] | 6.51 | 15.7 | 5 | 
QQDFVNWLLAQK-NH2 (peptide, UniProt P09681 70-81, looked up, range 19-30; also called GIP19-30a) [GIP 19-30NH2] | 20.1 | 45 | 52.3 | 
YAEGTFISDYSIAM-OH (peptide, UniProt P09681 52-65, looked up, range 1-14; free acid form; also called native GIP (1-14)) [GIP 1-14OH] | 88.9 | 85.2 | 51.3 | 
